Consider 15 substances from PMC5664571.

The target of this data set is E. coli RNA polymerase holoenzyme saturated with sigma70 (Escherichia coli) (UniProt P0A7Z4+P0A8V2+P0A8T7+P0A800+P00579). Kind of data set: EMSA. The conditions noted are these: EMSA: 10 nM DNA, 0-170 nM RNAP, binding buffer (5X: 750 mM KCl, 0.5 mM DTT, 0.5 mM EDTA, 50 mM Tris pH 7.4; 1X = 150 mM KCl, 0.1 mM DTT, 0.1 mM EDTA, 10 mM …). For orientation: A gel shift assay detects complexes by their altered migration in electrophoresis.

Take “CCAGGATACATAGATTACCACAACTCCGAGCCCTTCCACCACCTATATTTGCTGCTCGTAAAAAAAAAACTTGACAGCTAGCTCAGTCCTAGGTATAATGCTAGCAGCTGTCACCGGATGTGCTTTCCGGTCTGATGAGTCCGTGAGGACGAAACAGCCTCTACAAATAATTTTGTTTAATAAGTCCAATAGTTTATAAGGAAAGAATTACCTATGCGTAAAGGCGAAGAGCTGTTCACTGGTGTCGTCCC (double strand) [J23119 + 1/2UP]”: the Kd (usually the concentration at which binding is half-saturated) turned out to be 21 nM.
Take “CCAGGATACATAGATTACCACAACTCCGAGCCCTTCCACCACCTATATTTGCTGCTCGTAAAAAAAAAACCTGACAGCTAGCTCAGTCCTAGGTATAATGCTAGCAGCTGTCACCGGATGTGCTTTCCGGTCTGATGAGTCCGTGAGGACGAAACAGCCTCTACAAATAATTTTGTTTAATAAGTCCAATAGTTTATAAGGAAAGAATTACCTATGCGTAAAGGCGAAGAGCTGTTCACTGGTGTCGTCCC (double strand) [J23108 + 1/2UP]”: the dissociation constant (Kd) amounted to 22 nM.
The substance J23109 + UP came in with a Kd of 7.44 nM.
J23115 showed a Kd of 55 nM.
Turning to J23109, the dissociation constant (Kd) came out at 46 nM.
Regarding J23109 + 1/2UP, the equilibrium dissociation constant (Kd) stood at 64.8 nM.
J23112 + 1/2UP gave a Kd of 68.2 nM.
The value for J23115 + UP was 38.1 nM.
The value for “CCAGGATACATAGATTACCACAACTCCGAGCCCTTCCACCACCTATATTTGCTGCTCGTAAAAAAAAAACTTGACAGCTAGCTCAGTCCTAGGTACTGTGCTAGCAGCTGTCACCGGATGTGCTTTCCGGTCTGATGAGTCCGTGAGGACGAAACAGCCTCTACAAATAATTTTGTTTAATAAGTCCAATAGTTTATAAGGAAAGAATTACCTATGCGTAAAGGCGAAGAGCTGTTCACTGGTGTCGTCCC (double strand) [J23102 + 1/2UP]” was 45.5 nM.
Turning to “CCAGGATACATAGATTACCACAACTCCGAGCCCTTCCACCACCTATGGAAAATTTTTTTAAAAAAAAAACTTGACAGCTAGCTCAGTCCTAGGTATAATGCTAGCAGCTGTCACCGGATGTGCTTTCCGGTCTGATGAGTCCGTGAGGACGAAACAGCCTCTACAAATAATTTTGTTTAATAAGTCCAATAGTTTATAAGGAAAGAATTACCTATGCGTAAAGGCGAAGAGCTGTTCACTGGTGTCGTCCC (double strand) [J23119 + UP]”, the Kd is 42 nM.
J23112 + UP yielded a Kd of 12.6 nM.
For “CCAGGATACATAGATTACCACAACTCCGAGCCCTTCCACCACCTATGGAAAATTTTTTTAAAAAAAAAACTTGACAGCTAGCTCAGTCCTAGGTACTGTGCTAGCAGCTGTCACCGGATGTGCTTTCCGGTCTGATGAGTCCGTGAGGACGAAACAGCCTCTACAAATAATTTTGTTTAATAAGTCCAATAGTTTATAAGGAAAGAATTACCTATGCGTAAAGGCGAAGAGCTGTTCACTGGTGTCGTCCC (double strand) [J23102 + UP]”, the Kd was 44.8 nM. This Kd lies about 3.6-fold higher than the previous one.
The value for J23115 + 1/2UP was 51.7 nM; that for “CCAGGATACATAGATTACCACAACTCCGAGCCCTTCCACCACCTATGGAAAATTTTTTTAAAAAAAAAACCTGACAGCTAGCTCAGTCCTAGGTATAATGCTAGCAGCTGTCACCGGATGTGCTTTCCGGTCTGATGAGTCCGTGAGGACGAAACAGCCTCTACAAATAATTTTGTTTAATAAGTCCAATAGTTTATAAGGAAAGAATTACCTATGCGTAAAGGCGAAGAGCTGTTCACTGGTGTCGTCCC (double strand) [J23108 + UP]” was 31.4 nM; that for J23112 was 50.8 nM.
